Consider 1 molecule from doi:10.1101/2021.02.02.429153 (bioRxiv, 2021).

The test concerns the target T1, tryptophan 2-C-methyltransferase (TsrM) from Streptomyces laurentii (Streptomyces laurentii, UniProt C0JRZ9 1-599).
T1 sequence (looked up): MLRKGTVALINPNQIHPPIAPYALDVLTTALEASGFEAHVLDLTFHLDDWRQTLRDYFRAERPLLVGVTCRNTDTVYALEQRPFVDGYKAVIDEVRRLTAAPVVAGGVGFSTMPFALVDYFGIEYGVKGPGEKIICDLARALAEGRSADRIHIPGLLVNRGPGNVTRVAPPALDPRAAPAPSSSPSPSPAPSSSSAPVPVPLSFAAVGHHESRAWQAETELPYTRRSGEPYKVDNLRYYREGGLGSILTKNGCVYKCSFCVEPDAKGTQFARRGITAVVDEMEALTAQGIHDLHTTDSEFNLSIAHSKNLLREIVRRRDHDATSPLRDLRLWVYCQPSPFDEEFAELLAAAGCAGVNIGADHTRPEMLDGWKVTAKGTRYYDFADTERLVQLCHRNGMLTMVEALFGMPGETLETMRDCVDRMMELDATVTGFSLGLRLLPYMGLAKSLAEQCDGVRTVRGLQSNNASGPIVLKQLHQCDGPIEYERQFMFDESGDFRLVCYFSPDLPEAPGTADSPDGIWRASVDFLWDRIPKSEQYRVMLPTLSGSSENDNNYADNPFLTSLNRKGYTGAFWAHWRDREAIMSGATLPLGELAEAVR
Kind of test: BLI. (BLI is a label-free optical method that tracks binding on a fibre tip over time.)

B1: Streptomyces cattleya [4Fe-4S] ferredoxin Fdx1 (natural protein, UniProt F8K3M7 1-106, looked up)
chain: MTYVIAQPCVDVKDKACIEECPVDCIYEGQRSLYIHPDECVDCGACEPVCPVEAIFYEDDTPEEWKDYYKANVEFFDELGSPGGASKLGLIERDHPFIAALPPQNG
modifications: biotinylated through incubation with 1 equivalent of NHS-PEG4-Biotin
What is called Kd is the free concentration of one partner at which half of the binding sites on the other are occupied at equilibrium, for simple one-to-one binding. Read a high Kd as weaker binding. In the case of B1, the affinity, expressed as Kd, was 40 µM.
